Earlier results, collected in publication PMC6281825.

Molecular target: Complement C5 (Homo sapiens) (UniProt P01031)

eculizumab
Kd: 0.1 nM
